Experimental findings from patent US20210388087A1 (Chugai, published 2021) are described below.

B1: H183/L072 VH H35F (antibody, name in Kabat numbering, V domains shown)
VH: QVQLVESGGGLVQPGRSLRLSCAASGFTFSNAWMFWVRQAPGKGLEWVAQIKDKGNAYAAYYAPSVKGRFTISRDDSKNSIYLQMNSLKTEDTAVYYCHYVHYASASTVLPAFGVDAWGQGTTVTVSS
VL: DIVMTQSPLSLPVTPGEPASISCQASQELVHMNRNTYLHWYQQKPGQAPRLLIYKVSNRFPGVPDRFSGSGSGTDFTLKISRVEAEDVGVYYCAQGTSVPFTFGQGTKLEIK
B2: H183/L072 VH H93P (antibody, name in Kabat numbering, V domains shown)
VH: QVQLVESGGGLVQPGRSLRLSCAASGFTFSNAWMHWVRQAPGKGLEWVAQIKDKGNAYAAYYAPSVKGRFTISRDDSKNSIYLQMNSLKTEDTAVYYCPYVHYASASTVLPAFGVDAWGQGTTVTVSS
VL: DIVMTQSPLSLPVTPGEPASISCQASQELVHMNRNTYLHWYQQKPGQAPRLLIYKVSNRFPGVPDRFSGSGSGTDFTLKISRVEAEDVGVYYCAQGTSVPFTFGQGTKLEIK
B3: H183/L072 VH H93I (antibody, name in Kabat numbering, V domains shown)
VH: QVQLVESGGGLVQPGRSLRLSCAASGFTFSNAWMHWVRQAPGKGLEWVAQIKDKGNAYAAYYAPSVKGRFTISRDDSKNSIYLQMNSLKTEDTAVYYCIYVHYASASTVLPAFGVDAWGQGTTVTVSS
VL: DIVMTQSPLSLPVTPGEPASISCQASQELVHMNRNTYLHWYQQKPGQAPRLLIYKVSNRFPGVPDRFSGSGSGTDFTLKISRVEAEDVGVYYCAQGTSVPFTFGQGTKLEIK
B4: H183/L072 VH I51M (antibody, name in Kabat numbering, V domains shown)
VH: QVQLVESGGGLVQPGRSLRLSCAASGFTFSNAWMHWVRQAPGKGLEWVAQMKDKGNAYAAYYAPSVKGRFTISRDDSKNSIYLQMNSLKTEDTAVYYCHYVHYASASTVLPAFGVDAWGQGTTVTVSS
VL: DIVMTQSPLSLPVTPGEPASISCQASQELVHMNRNTYLHWYQQKPGQAPRLLIYKVSNRFPGVPDRFSGSGSGTDFTLKISRVEAEDVGVYYCAQGTSVPFTFGQGTKLEIK
B5: H183/L072 VH H35T (antibody, name in Kabat numbering, V domains shown)
VH: QVQLVESGGGLVQPGRSLRLSCAASGFTFSNAWMTWVRQAPGKGLEWVAQIKDKGNAYAAYYAPSVKGRFTISRDDSKNSIYLQMNSLKTEDTAVYYCHYVHYASASTVLPAFGVDAWGQGTTVTVSS
VL: DIVMTQSPLSLPVTPGEPASISCQASQELVHMNRNTYLHWYQQKPGQAPRLLIYKVSNRFPGVPDRFSGSGSGTDFTLKISRVEAEDVGVYYCAQGTSVPFTFGQGTKLEIK
B6: H183/L072 VH H35N (antibody, name in Kabat numbering, V domains shown)
VH: QVQLVESGGGLVQPGRSLRLSCAASGFTFSNAWMNWVRQAPGKGLEWVAQIKDKGNAYAAYYAPSVKGRFTISRDDSKNSIYLQMNSLKTEDTAVYYCHYVHYASASTVLPAFGVDAWGQGTTVTVSS
VL: DIVMTQSPLSLPVTPGEPASISCQASQELVHMNRNTYLHWYQQKPGQAPRLLIYKVSNRFPGVPDRFSGSGSGTDFTLKISRVEAEDVGVYYCAQGTSVPFTFGQGTKLEIK
B7: H183/L072 VH H93A (antibody, name in Kabat numbering, V domains shown)
VH: QVQLVESGGGLVQPGRSLRLSCAASGFTFSNAWMHWVRQAPGKGLEWVAQIKDKGNAYAAYYAPSVKGRFTISRDDSKNSIYLQMNSLKTEDTAVYYCAYVHYASASTVLPAFGVDAWGQGTTVTVSS
VL: DIVMTQSPLSLPVTPGEPASISCQASQELVHMNRNTYLHWYQQKPGQAPRLLIYKVSNRFPGVPDRFSGSGSGTDFTLKISRVEAEDVGVYYCAQGTSVPFTFGQGTKLEIK
B8: H183/L072 VH H96L (antibody, name in Kabat numbering, V domains shown)
VH: QVQLVESGGGLVQPGRSLRLSCAASGFTFSNAWMHWVRQAPGKGLEWVAQIKDKGNAYAAYYAPSVKGRFTISRDDSKNSIYLQMNSLKTEDTAVYYCHYVLYASASTVLPAFGVDAWGQGTTVTVSS
VL: DIVMTQSPLSLPVTPGEPASISCQASQELVHMNRNTYLHWYQQKPGQAPRLLIYKVSNRFPGVPDRFSGSGSGTDFTLKISRVEAEDVGVYYCAQGTSVPFTFGQGTKLEIK
B9: H183/L072 VH I51K (antibody, name in Kabat numbering, V domains shown)
VH: QVQLVESGGGLVQPGRSLRLSCAASGFTFSNAWMHWVRQAPGKGLEWVAQKKDKGNAYAAYYAPSVKGRFTISRDDSKNSIYLQMNSLKTEDTAVYYCHYVHYASASTVLPAFGVDAWGQGTTVTVSS
VL: DIVMTQSPLSLPVTPGEPASISCQASQELVHMNRNTYLHWYQQKPGQAPRLLIYKVSNRFPGVPDRFSGSGSGTDFTLKISRVEAEDVGVYYCAQGTSVPFTFGQGTKLEIK
B10: H183/L072 VH H35V (antibody, name in Kabat numbering, V domains shown)
VH: QVQLVESGGGLVQPGRSLRLSCAASGFTFSNAWMVWVRQAPGKGLEWVAQIKDKGNAYAAYYAPSVKGRFTISRDDSKNSIYLQMNSLKTEDTAVYYCHYVHYASASTVLPAFGVDAWGQGTTVTVSS
VL: DIVMTQSPLSLPVTPGEPASISCQASQELVHMNRNTYLHWYQQKPGQAPRLLIYKVSNRFPGVPDRFSGSGSGTDFTLKISRVEAEDVGVYYCAQGTSVPFTFGQGTKLEIK
B11: H183/L072 VH I51L (antibody, name in Kabat numbering, V domains shown)
VH: QVQLVESGGGLVQPGRSLRLSCAASGFTFSNAWMHWVRQAPGKGLEWVAQLKDKGNAYAAYYAPSVKGRFTISRDDSKNSIYLQMNSLKTEDTAVYYCHYVHYASASTVLPAFGVDAWGQGTTVTVSS
VL: DIVMTQSPLSLPVTPGEPASISCQASQELVHMNRNTYLHWYQQKPGQAPRLLIYKVSNRFPGVPDRFSGSGSGTDFTLKISRVEAEDVGVYYCAQGTSVPFTFGQGTKLEIK
B12: H183/L072 VH H96M (antibody, name in Kabat numbering, V domains shown)
VH: QVQLVESGGGLVQPGRSLRLSCAASGFTFSNAWMHWVRQAPGKGLEWVAQIKDKGNAYAAYYAPSVKGRFTISRDDSKNSIYLQMNSLKTEDTAVYYCHYVMYASASTVLPAFGVDAWGQGTTVTVSS
VL: DIVMTQSPLSLPVTPGEPASISCQASQELVHMNRNTYLHWYQQKPGQAPRLLIYKVSNRFPGVPDRFSGSGSGTDFTLKISRVEAEDVGVYYCAQGTSVPFTFGQGTKLEIK
B13: H183/L072 VH I51G (antibody, name in Kabat numbering, V domains shown)
VH: QVQLVESGGGLVQPGRSLRLSCAASGFTFSNAWMHWVRQAPGKGLEWVAQGKDKGNAYAAYYAPSVKGRFTISRDDSKNSIYLQMNSLKTEDTAVYYCHYVHYASASTVLPAFGVDAWGQGTTVTVSS
VL: DIVMTQSPLSLPVTPGEPASISCQASQELVHMNRNTYLHWYQQKPGQAPRLLIYKVSNRFPGVPDRFSGSGSGTDFTLKISRVEAEDVGVYYCAQGTSVPFTFGQGTKLEIK
B14: H183/L072 VH H35Y (antibody, name in Kabat numbering, V domains shown)
VH: QVQLVESGGGLVQPGRSLRLSCAASGFTFSNAWMYWVRQAPGKGLEWVAQIKDKGNAYAAYYAPSVKGRFTISRDDSKNSIYLQMNSLKTEDTAVYYCHYVHYASASTVLPAFGVDAWGQGTTVTVSS
VL: DIVMTQSPLSLPVTPGEPASISCQASQELVHMNRNTYLHWYQQKPGQAPRLLIYKVSNRFPGVPDRFSGSGSGTDFTLKISRVEAEDVGVYYCAQGTSVPFTFGQGTKLEIK
B15: H183/L072 VH H96A (antibody, name in Kabat numbering, V domains shown)
VH: QVQLVESGGGLVQPGRSLRLSCAASGFTFSNAWMHWVRQAPGKGLEWVAQIKDKGNAYAAYYAPSVKGRFTISRDDSKNSIYLQMNSLKTEDTAVYYCHYVAYASASTVLPAFGVDAWGQGTTVTVSS
VL: DIVMTQSPLSLPVTPGEPASISCQASQELVHMNRNTYLHWYQQKPGQAPRLLIYKVSNRFPGVPDRFSGSGSGTDFTLKISRVEAEDVGVYYCAQGTSVPFTFGQGTKLEIK
B16: H183/L072 VH H96I (antibody, name in Kabat numbering, V domains shown)
VH: QVQLVESGGGLVQPGRSLRLSCAASGFTFSNAWMHWVRQAPGKGLEWVAQIKDKGNAYAAYYAPSVKGRFTISRDDSKNSIYLQMNSLKTEDTAVYYCHYVIYASASTVLPAFGVDAWGQGTTVTVSS
VL: DIVMTQSPLSLPVTPGEPASISCQASQELVHMNRNTYLHWYQQKPGQAPRLLIYKVSNRFPGVPDRFSGSGSGTDFTLKISRVEAEDVGVYYCAQGTSVPFTFGQGTKLEIK
B17: H183/L072 VH H93L (antibody, name in Kabat numbering, V domains shown)
VH: QVQLVESGGGLVQPGRSLRLSCAASGFTFSNAWMHWVRQAPGKGLEWVAQIKDKGNAYAAYYAPSVKGRFTISRDDSKNSIYLQMNSLKTEDTAVYYCLYVHYASASTVLPAFGVDAWGQGTTVTVSS
VL: DIVMTQSPLSLPVTPGEPASISCQASQELVHMNRNTYLHWYQQKPGQAPRLLIYKVSNRFPGVPDRFSGSGSGTDFTLKISRVEAEDVGVYYCAQGTSVPFTFGQGTKLEIK
B18: H183/L072 VH H93M (antibody, name in Kabat numbering, V domains shown)
VH: QVQLVESGGGLVQPGRSLRLSCAASGFTFSNAWMHWVRQAPGKGLEWVAQIKDKGNAYAAYYAPSVKGRFTISRDDSKNSIYLQMNSLKTEDTAVYYCMYVHYASASTVLPAFGVDAWGQGTTVTVSS
VL: DIVMTQSPLSLPVTPGEPASISCQASQELVHMNRNTYLHWYQQKPGQAPRLLIYKVSNRFPGVPDRFSGSGSGTDFTLKISRVEAEDVGVYYCAQGTSVPFTFGQGTKLEIK
B19: H183/L072 VH H96P (antibody, name in Kabat numbering, V domains shown)
VH: QVQLVESGGGLVQPGRSLRLSCAASGFTFSNAWMHWVRQAPGKGLEWVAQIKDKGNAYAAYYAPSVKGRFTISRDDSKNSIYLQMNSLKTEDTAVYYCHYVPYASASTVLPAFGVDAWGQGTTVTVSS
VL: DIVMTQSPLSLPVTPGEPASISCQASQELVHMNRNTYLHWYQQKPGQAPRLLIYKVSNRFPGVPDRFSGSGSGTDFTLKISRVEAEDVGVYYCAQGTSVPFTFGQGTKLEIK
B20: H183/L072 VH I51A (antibody, name in Kabat numbering, V domains shown)
VH: QVQLVESGGGLVQPGRSLRLSCAASGFTFSNAWMHWVRQAPGKGLEWVAQAKDKGNAYAAYYAPSVKGRFTISRDDSKNSIYLQMNSLKTEDTAVYYCHYVHYASASTVLPAFGVDAWGQGTTVTVSS
VL: DIVMTQSPLSLPVTPGEPASISCQASQELVHMNRNTYLHWYQQKPGQAPRLLIYKVSNRFPGVPDRFSGSGSGTDFTLKISRVEAEDVGVYYCAQGTSVPFTFGQGTKLEIK

T1 sequence (chain, as listed by the source limits assumed): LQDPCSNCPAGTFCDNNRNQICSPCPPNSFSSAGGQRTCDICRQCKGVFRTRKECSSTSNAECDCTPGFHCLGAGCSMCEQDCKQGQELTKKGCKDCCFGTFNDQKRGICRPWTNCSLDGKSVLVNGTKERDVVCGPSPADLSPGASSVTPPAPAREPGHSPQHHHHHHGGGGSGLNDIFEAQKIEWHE

The experiment concerns the target T1, Human CD137 ECD (human).
T1 construct: also called 4-1BB
As to the kind of experiment: single mutant vs template dBBDu183H.
Take B1: the “fold change of affinity” value was 4.3 fold.
With B2, the “fold change of affinity” value turned out to be 0 fold.
B3: the “fold change of affinity” value was determined as 0 fold.
With B4, the “fold change of affinity” value came out at 0.2 fold.
Turning to B5, the “fold change of affinity” value was determined as 0.5 fold.
In the case of B6, the “fold change of affinity” value turned out to be 0.4 fold.
As for B7, the figure is 0 fold; as for B8, 0.8 fold.
As for B9, the figure is 0.1 fold.
Take B10: the “fold change of affinity” value stood at 0.5 fold.
With B11 the figure was 0.1 fold.
As for B12, the “fold change of affinity” value was determined as 1.4 fold.
With B13 the figure was 0.1 fold; with B14, 3.9 fold; with B15, 0 fold.
For the molecule B16, the “fold change of affinity” value turned out to be 0.5 fold.
As for B17, the figure is 0 fold.
Consider B18, for which the “fold change of affinity” value came to 0 fold.
For B19, the “fold change of affinity” value came to 0 fold.
For B20, the “fold change of affinity” value is 0.1 fold.
